According to PMC5456053:

Biological target: SecYEG-SecDF•YajC (E. coli) (UniProt P0AGA2)

% pOmpA Translocation, +YEG: in vitro translocation of pOmpA into liposomes with SecYEG-SecDF•YajC (% pOmpA Translocation) | Channel Activity, μA, +YEG: ion current in Xenopus oocytes injected with SecA, liposomes, SecYEG-SecDF•YajC, pOmpA, ATP-Mg [μA] | Channel Activity, μA, +YEG: ion current in Xenopus oocytes injected with the fragment, liposomes, SecYEG-SecDF•YajC, pOmpA, ATP-Mg [μA] | Molecule
0 |  |  | SecA N772 (SecA 1-772) (from UniProt P10408 1-772) (domain or fragment)
71.2 |  | 5.8 | SecA N831 (SecA 1-831) (domain or fragment) MLIKLLTKVFGSRNDRTLRRMRKVVNIINAMEPEMEKLSDEELKGKTAEFRARLEKGEVLENLIPEAFAVVREASKRVFGMRHFDVQLLGGMVLNERCIAEMRTGEGKTLTATLPAYLNALTGKGVHVVTVNDYLAQRDAENNRPLFEFLGLTVGINLPGMPAPAKREAYAADITYGTNNEYGFDYLRDNMAFSPEERVQRKLHYALVDEVDSILIDEARTPLIISGPAEDSSEMYKRVNKIIPHLIRQEKEDSETFQGEGHFSVDEKSRQVNLTERGLVLIEELLVKEGIMDEGESLYSPANIMLMHHVTAALRAHALFTRDVDYIVKDGEVIIVDEHTGRTMQGRRWSDGLHQAVEAKEGVQIQNENQTLASITFQNYFRLYEKLAGMTGTADTEAFEFSSIYKLDTVVVPTNRPMIRKDLPDLVYMTEAEKIQAIIEDIKERTAKGQPVLVGTISIEKSELVSNELTKAGIKHNVLNAKFHANEAAIVAQAGYPAAVTIATNMAGRGTDIVLGGSWQAEVAALENPTAEQIEKIKADWQVRHDAVLEAGGLHIIGTERHESRRIDNQLRGRSGRQGDAGSSRFYLSMEDALMRIFASDRVSGMMRKLGMKPGEAIEHPWVTKAIANAQRKVESRNFDIRKQLLEYDDVANDQRRAIYSQRNELLDVSDVSETINSIREDVFKATIDAYIPPQSLEEMWDIPGLQERLKNDFDLDLPIAEWLDKEPELHEETLRERILAQSIEVYQRKEEVVGAEMMRHFEKGVMLQTLDSLWKEHLAAMDYLRQGIHLRGYAQKDPKQEYKRESFSMFAAMLESLKYEVISTLSKVQV
0 |  |  | SecA N798* (SecA 1-798, D798R) (domain or fragment) MLIKLLTKVFGSRNDRTLRRMRKVVNIINAMEPEMEKLSDEELKGKTAEFRARLEKGEVLENLIPEAFAVVREASKRVFGMRHFDVQLLGGMVLNERCIAEMRTGEGKTLTATLPAYLNALTGKGVHVVTVNDYLAQRDAENNRPLFEFLGLTVGINLPGMPAPAKREAYAADITYGTNNEYGFDYLRDNMAFSPEERVQRKLHYALVDEVDSILIDEARTPLIISGPAEDSSEMYKRVNKIIPHLIRQEKEDSETFQGEGHFSVDEKSRQVNLTERGLVLIEELLVKEGIMDEGESLYSPANIMLMHHVTAALRAHALFTRDVDYIVKDGEVIIVDEHTGRTMQGRRWSDGLHQAVEAKEGVQIQNENQTLASITFQNYFRLYEKLAGMTGTADTEAFEFSSIYKLDTVVVPTNRPMIRKDLPDLVYMTEAEKIQAIIEDIKERTAKGQPVLVGTISIEKSELVSNELTKAGIKHNVLNAKFHANEAAIVAQAGYPAAVTIATNMAGRGTDIVLGGSWQAEVAALENPTAEQIEKIKADWQVRHDAVLEAGGLHIIGTERHESRRIDNQLRGRSGRQGDAGSSRFYLSMEDALMRIFASDRVSGMMRKLGMKPGEAIEHPWVTKAIANAQRKVESRNFDIRKQLLEYDDVANDQRRAIYSQRNELLDVSDVSETINSIREDVFKATIDAYIPPQSLEEMWDIPGLQERLKNDFDLDLPIAEWLDKEPELHEETLRERILAQSIEVYQRKEEVVGAEMMRHFEKGVMLQTLDSLWKEHLAAMDYLRQGIHLRGYAQKR
7.6 |  |  | SecA N828 (SecA 1-828) (domain or fragment) MLIKLLTKVFGSRNDRTLRRMRKVVNIINAMEPEMEKLSDEELKGKTAEFRARLEKGEVLENLIPEAFAVVREASKRVFGMRHFDVQLLGGMVLNERCIAEMRTGEGKTLTATLPAYLNALTGKGVHVVTVNDYLAQRDAENNRPLFEFLGLTVGINLPGMPAPAKREAYAADITYGTNNEYGFDYLRDNMAFSPEERVQRKLHYALVDEVDSILIDEARTPLIISGPAEDSSEMYKRVNKIIPHLIRQEKEDSETFQGEGHFSVDEKSRQVNLTERGLVLIEELLVKEGIMDEGESLYSPANIMLMHHVTAALRAHALFTRDVDYIVKDGEVIIVDEHTGRTMQGRRWSDGLHQAVEAKEGVQIQNENQTLASITFQNYFRLYEKLAGMTGTADTEAFEFSSIYKLDTVVVPTNRPMIRKDLPDLVYMTEAEKIQAIIEDIKERTAKGQPVLVGTISIEKSELVSNELTKAGIKHNVLNAKFHANEAAIVAQAGYPAAVTIATNMAGRGTDIVLGGSWQAEVAALENPTAEQIEKIKADWQVRHDAVLEAGGLHIIGTERHESRRIDNQLRGRSGRQGDAGSSRFYLSMEDALMRIFASDRVSGMMRKLGMKPGEAIEHPWVTKAIANAQRKVESRNFDIRKQLLEYDDVANDQRRAIYSQRNELLDVSDVSETINSIREDVFKATIDAYIPPQSLEEMWDIPGLQERLKNDFDLDLPIAEWLDKEPELHEETLRERILAQSIEVYQRKEEVVGAEMMRHFEKGVMLQTLDSLWKEHLAAMDYLRQGIHLRGYAQKDPKQEYKRESFSMFAAMLESLKYEVISTLSK
0 |  | 5.8 | SecA N649 (SecA 1-649) (domain or fragment) MLIKLLTKVFGSRNDRTLRRMRKVVNIINAMEPEMEKLSDEELKGKTAEFRARLEKGEVLENLIPEAFAVVREASKRVFGMRHFDVQLLGGMVLNERCIAEMRTGEGKTLTATLPAYLNALTGKGVHVVTVNDYLAQRDAENNRPLFEFLGLTVGINLPGMPAPAKREAYAADITYGTNNEYGFDYLRDNMAFSPEERVQRKLHYALVDEVDSILIDEARTPLIISGPAEDSSEMYKRVNKIIPHLIRQEKEDSETFQGEGHFSVDEKSRQVNLTERGLVLIEELLVKEGIMDEGESLYSPANIMLMHHVTAALRAHALFTRDVDYIVKDGEVIIVDEHTGRTMQGRRWSDGLHQAVEAKEGVQIQNENQTLASITFQNYFRLYEKLAGMTGTADTEAFEFSSIYKLDTVVVPTNRPMIRKDLPDLVYMTEAEKIQAIIEDIKERTAKGQPVLVGTISIEKSELVSNELTKAGIKHNVLNAKFHANEAAIVAQAGYPAAVTIATNMAGRGTDIVLGGSWQAEVAALENPTAEQIEKIKADWQVRHDAVLEAGGLHIIGTERHESRRIDNQLRGRSGRQGDAGSSRFYLSMEDALMRIFASDRVSGMMRKLGMKPGEAIEHPWVTKAIANAQRKVESRNFDIRKQLLEYD

Continued, molecule first:

Molecule | % pOmpA Translocation, +YEG: in vitro translocation of pOmpA into liposomes with SecYEG-SecDF•YajC (% pOmpA Translocation) | Channel Activity, μA, +YEG: ion current in Xenopus oocytes injected with SecA, liposomes, SecYEG-SecDF•YajC, pOmpA, ATP-Mg [μA] | Channel Activity, μA, +YEG: ion current in Xenopus oocytes injected with the fragment, liposomes, SecYEG-SecDF•YajC, pOmpA, ATP-Mg [μA]
E. coli SecA (from UniProt P10408 1-901) (natural protein) | 97 | 7 | 
SecA N619 (SecA 1-619) (domain or fragment) MLIKLLTKVFGSRNDRTLRRMRKVVNIINAMEPEMEKLSDEELKGKTAEFRARLEKGEVLENLIPEAFAVVREASKRVFGMRHFDVQLLGGMVLNERCIAEMRTGEGKTLTATLPAYLNALTGKGVHVVTVNDYLAQRDAENNRPLFEFLGLTVGINLPGMPAPAKREAYAADITYGTNNEYGFDYLRDNMAFSPEERVQRKLHYALVDEVDSILIDEARTPLIISGPAEDSSEMYKRVNKIIPHLIRQEKEDSETFQGEGHFSVDEKSRQVNLTERGLVLIEELLVKEGIMDEGESLYSPANIMLMHHVTAALRAHALFTRDVDYIVKDGEVIIVDEHTGRTMQGRRWSDGLHQAVEAKEGVQIQNENQTLASITFQNYFRLYEKLAGMTGTADTEAFEFSSIYKLDTVVVPTNRPMIRKDLPDLVYMTEAEKIQAIIEDIKERTAKGQPVLVGTISIEKSELVSNELTKAGIKHNVLNAKFHANEAAIVAQAGYPAAVTIATNMAGRGTDIVLGGSWQAEVAALENPTAEQIEKIKADWQVRHDAVLEAGGLHIIGTERHESRRIDNQLRGRSGRQGDAGSSRFYLSMEDALMRIFASDRVSGMMRKLGMKPGEAIE | 0 |  | 0
SecA N629* (SecA 1-629, N629D) (domain or fragment) MLIKLLTKVFGSRNDRTLRRMRKVVNIINAMEPEMEKLSDEELKGKTAEFRARLEKGEVLENLIPEAFAVVREASKRVFGMRHFDVQLLGGMVLNERCIAEMRTGEGKTLTATLPAYLNALTGKGVHVVTVNDYLAQRDAENNRPLFEFLGLTVGINLPGMPAPAKREAYAADITYGTNNEYGFDYLRDNMAFSPEERVQRKLHYALVDEVDSILIDEARTPLIISGPAEDSSEMYKRVNKIIPHLIRQEKEDSETFQGEGHFSVDEKSRQVNLTERGLVLIEELLVKEGIMDEGESLYSPANIMLMHHVTAALRAHALFTRDVDYIVKDGEVIIVDEHTGRTMQGRRWSDGLHQAVEAKEGVQIQNENQTLASITFQNYFRLYEKLAGMTGTADTEAFEFSSIYKLDTVVVPTNRPMIRKDLPDLVYMTEAEKIQAIIEDIKERTAKGQPVLVGTISIEKSELVSNELTKAGIKHNVLNAKFHANEAAIVAQAGYPAAVTIATNMAGRGTDIVLGGSWQAEVAALENPTAEQIEKIKADWQVRHDAVLEAGGLHIIGTERHESRRIDNQLRGRSGRQGDAGSSRFYLSMEDALMRIFASDRVSGMMRKLGMKPGEAIEHPWVTKAIAD |  |  | 0.4
SecA N609 (SecA 1-609) (domain or fragment) MLIKLLTKVFGSRNDRTLRRMRKVVNIINAMEPEMEKLSDEELKGKTAEFRARLEKGEVLENLIPEAFAVVREASKRVFGMRHFDVQLLGGMVLNERCIAEMRTGEGKTLTATLPAYLNALTGKGVHVVTVNDYLAQRDAENNRPLFEFLGLTVGINLPGMPAPAKREAYAADITYGTNNEYGFDYLRDNMAFSPEERVQRKLHYALVDEVDSILIDEARTPLIISGPAEDSSEMYKRVNKIIPHLIRQEKEDSETFQGEGHFSVDEKSRQVNLTERGLVLIEELLVKEGIMDEGESLYSPANIMLMHHVTAALRAHALFTRDVDYIVKDGEVIIVDEHTGRTMQGRRWSDGLHQAVEAKEGVQIQNENQTLASITFQNYFRLYEKLAGMTGTADTEAFEFSSIYKLDTVVVPTNRPMIRKDLPDLVYMTEAEKIQAIIEDIKERTAKGQPVLVGTISIEKSELVSNELTKAGIKHNVLNAKFHANEAAIVAQAGYPAAVTIATNMAGRGTDIVLGGSWQAEVAALENPTAEQIEKIKADWQVRHDAVLEAGGLHIIGTERHESRRIDNQLRGRSGRQGDAGSSRFYLSMEDALMRIFASDRVSGMMRK | 0 |  | 0
